Test results as given in the Human Domainome abundance scans (Beltran et al. 2025).

B1: Death-inducer obliterator 1, residues 263 to 321; numbered along this chain, Q9BTC0 (parent)
chain: GYDPNALYCICRQPHNNRFMICCDRCEEWFHGDCVGISEARGRLLERNGEDYICPNCTI

Variants of: B1
Experiment: abundance fitness (aPCA) (normalised: wild type 0, dead -1); higher = more abundant; growth selection in yeast, the domain comes from the species named
Conditions: Homo sapiens

Abundance fitness, by site and new letter:
P55: D -0.66; F -0.4; L -0.011; R 0.019; E -0.116; K 0.265; M -0.112; Q 0.109; H -0.04; C -0.098; G -0.531; A 0.078; T 0.083; I -0.156; Y -0.245; N -0.365
C54: S -0.723; T -0.65; N -0.811; H -0.245; E -0.781; Y -1.24; G -1.15; P -0.821; I -1; Q -0.405; K -0.571; M -0.991; D -0.999; L -1.19; V -0.674
I53: R -0.024; H -0.093; G -0.136; A 0.059; C 0.063; Q -0.03; V -0.028; Y 0.149; L 0.132; K 0.355; E 0.172; M 0.269; N 0.328; P -0.419; S 0.02
T58: A 0.084; G -0.006; V -0.055; Y -0.289; D 0.138; R 0.3; K 0.123; P 0.014; F -0.264; H 0.046; L 0.127; S 0.047; M -0.115; C 0.194; I 0.111
I59: V 0.279; F -0.122; D 0.618; G -0.218; M 0.026; L -0.077; A 0.001; N 0.329; H -0.14; K 0.424; S -0.015; W -0.414; R -0.046
Y52: K -0.181; G -0.357; T -0.03; Q -0.256; W 0.09; F 0.009; I -0.196; V -0.151; R -0.227
